Source: the supplement of paper PMC9170038

Experiments:
MS2 coat protein [1] = test: apparent KD of MS2 coat protein; higher = weaker reporter binding; details: Eterna round: R101
Protocol: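 RNA-MaP: designed FMN/MS2 RNA switches (84 nt design region) are transcribed on-chip within common flanks and titrated with SNAP-549-labelled MS2 coat protein (about 1-3000 nM) in 100 mM Tris pH 7.5, 80 mM KCl, 4 mM MgCl2, without or with 200 uM FMN. Median apparent KD per design; activation ratio = KD,OFF / KD,ON.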

MS2 coat protein [2] = test: apparent KD of MS2 coat protein, switch ON state; designed switch direction (-1 OFF switch, 1 ON switch): 1; higher = weaker reporter binding; details: FMN input: 0 or 200 uM; Eterna round: R93 (includes R88 designs)
How it was run: (§1)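 With or without constant ligand, designed RNA switches in 100 mM Tris-HCl pH 7.5, 80 mM KCl and 4 mM MgCl2 were titrated with SNAP-549-labelled MS2 coat protein. Concentrations went up in twofold steps from 0.7 or 1.5 nM to 3 µM. The switches had been transcribed on-chip from Illumina sequencing clusters, and apparent KD is the per-design median of normalised cluster binding-curve fits.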

MS2 coat protein [3] = test: apparent KD of MS2 coat protein, switch OFF state (with FMN for OFF switches, without FMN for ON switches); designed switch direction (-1 OFF switch, 1 ON switch): 1; higher = weaker reporter binding; details: FMN input: 0 or 200 uM; Eterna round: R93 (includes R88 designs)
How it was run: as §1

| Sequence | apparent KD of MS2 coat protein (MS2 coat protein [1]; input ligand: FMN 200 uM) | apparent KD of MS2 coat protein (MS2 coat protein [1]; input ligand: none) | apparent KD of MS2 coat protein (MS2 coat protein [2]) | apparent KD of MS2 coat protein (MS2 coat protein [3]) |
| --- | --- | --- | --- | --- |
| AAAGAUUUUCAAGGAUAUCAGUGGCAAAGCCACUGAGAAGGUGAGGAUCACCCACCUACGUGACGCUGGAAACAGCGUCACGAA [#SharedSequence ExNG1 - 26] (puzzle (switch architecture): Exclusion NG 1) | 64.5 nM | 21 nM |  |  |
| AAAUAAAUCGAAGGAUAUCAGGGUGCACCUCAGUAAAACUGAGGUGCACCCUGAGAAGGUCGAGGAUCACCCGAUCUAAAUAAA [#SharedSequence SLExNG1: 2-2] (puzzle (switch architecture): Small Loop Exclusion NG 1) | 114 nM | 19.3 nM |  |  |
| AUAUGAGCUAUGGAGGAUAUCCAUAACAAGACAUGAGGAUCACCCAUGUAAUCAAAACAAUAAUGGGAGAAGGCCAUAGCUCAAU [SS 2 M47] |  |  | 76.3 nM | 50.9 nM |
| AUUAUUAUUACGCAGGAUAUCGAGGUUUUUACAUGAGGAUCACCCAUGUUUUUUUUUUUAUAUUACGAGAAGGGCGAUAUUAUUA [salish99-SS2-01] |  |  | 22.9 nM | 21.9 nM |
| CAGAGACAUGAGGAUCACCCAUGUAGGAUUAUGGGAGGAUAUACAAAGACGAGAGUCAGAGUAGAAGGCCUAGGAC [salish99-ss1-144] |  |  | 20.8 nM | 45.6 nM |
| CAGGGACAUGAGGAUCACCCAUGUGGGAUUAUGGGAGGAUAUACAAAGACGAGAGUCAGAGUAGAAGGCCUAGGAC [salish99-ss1-128] |  |  | 37.3 nM | 85.7 nM |
| CGGAAGGAGAGAGAGGAUAUCCAAAGGAAAACAUGAGGAUCACCCAUGUAGAAGGUAGGAAAUUGGGAGAAGGCUCAAGAGAGAG [salish99-ss2-119(!)] |  |  | 37.4 nM | 51.4 nM |
| CGGAGACAUGAGGAUCACCCAUGUGAGAAGAGGCGAGGAUAUCGAAAGAAAGAAGAGAAACGAGAAGGCGCGAGCU [salish99-SS1-072] |  |  | 23.1 nM | 27.6 nM |
| CUCAGGAAGAGAGAGGAUAUCCAAAGGAAAACAUGAGGAUCACCCAUGUAAAAGGUAGGAAAUUGGGAGAAGGCUCAAGAGAGAG [salish99-ss2-096] |  |  | 22.3 nM | 40 nM |
| CUGGACAUAGUACAGGAUAUAUGAAUAGUCACAUGAGGAUCACCCAUGUCCAUUUAUAUGGGCACAUAGAAGGGUGGUAGUUAAG [Mat - Same state - Malcolm Mod - D139] |  |  | 4.52 nM | 41.2 nM |
| CUUAGACAUGAGGAUCACCCAUGUCGAACAAACAAAGGAUAUGGGAGCCGAAGACGGCUAUUAGAAGGUUGCAAAA [Anrioned] |  |  | 28 nM | 26.4 nM |
| GAAAAACAUGAGGAUCACCCAUGUAGAAAUAUGGGAGGAUAUACGAAGACGAAAGUCAAAGUAGAAGGCCUAAGAA [Mat - Same State 1 - Eli mod - D109] |  |  | 21.7 nM | 87.8 nM |
| GAAAAACAUGAGGAUCACCCAUGUCAAUAUAUGGGAGGAUAUACAAAGACGAAAGUCAAAGUAGAAGGCCUAAAAG |  |  | 18.3 nM | 66.4 nM |
| GAAAAACAUGAGGAUCACCCAUGUGAAAAUAUGGGAGGAUAUACGAAGACGAAAGUCAAAGUAGAAGGCCUAAAAG [Garnet 31] |  |  | 23.8 nM | 87.9 nM |
| GAAGAACAUGAGGAUCACCCAUGUGUAGAAGCAUGAGGAUAUGUAAGUCAAAGAAAAACGAUAGAAGGCAUGGAGA [JR_SS001_Sub1714] |  |  | 141 nM | 119 nM |
| GAAGACAUAGUUCAGGAUAUGGGAAUAGUCACAUGAGGAUCACCCAUGUGCAUUUAUAUGCGCGCUCAGAAGGGAGGUAGAUAUA [SameState2 Malc#19] |  |  | 21 nM | 33.5 nM |

| Sequence | apparent KD of MS2 coat protein (MS2 coat protein [1]; input ligand: FMN 200 uM) | apparent KD of MS2 coat protein (MS2 coat protein [1]; input ligand: none) | apparent KD of MS2 coat protein (MS2 coat protein [2]) | apparent KD of MS2 coat protein (MS2 coat protein [3]) |
| --- | --- | --- | --- | --- |
| GACUGACAUGAGGAUCACCCAUGUAUUCAAACAUGAGGAUAUAUGACACGUCAUCGACGGAUAGAAGGCAUAGAUG [JR_SS001_Sub1210] |  |  | 163 nM | 205 nM |
| GAGAGACAUGAGGAUCACCCAUGUAGGAUUAUGGGAGGAUAUACAAAGACGAGAGUCAGAGUAGAAGGCCUAGGAC [salish99-ss1-140] |  |  | 23.4 nM | 56.7 nM |
| GAUAAACAUGAGGAUCACCCAUGUAGAUAUAUGGGAGGAUAUACAAAGACGAUAGUCAAAGUAGAAGGCCUAAAAG [77%, Mat - Mod of Eli - With 3 more U's] |  |  | 28.6 nM | 79.2 nM |
| GCAGGGCCACACUAGGAUAUGGGUGUCUAGACAUGAGGAUCACCCAUGUUAUGGCAAAACAAAGCUCAGAAGGAGUCGUGGCCCA [Tizasozaer] |  |  | 11.8 nM | 36 nM |
| GCCUAACAUGAGGAUCACCCAUGUAGUGGGUUGUUAGGAUAUGGGCCGCAUUACGCUGCACCAGAAGGAAUAGAAG [Rasoraer] |  |  | 319 nM | 475 nM |
| GGAAAACAUGAGGAUCACCCAUGUAGAAAUAUGGGAGGAUAUACAAAGACGAAAGUCAAAGUAGAAGGCCUAAAAG [salish99-SS1-084] |  |  | 33.9 nM | 60.2 nM |
| GGGAAGAAGAGAGAGGAUAUCCAAAGGAAAACAUGAGGAUCACCCAUGUAAAAGGAAGGAAAUUGGGAGAAGGCUCAAAAGAGGA [salish99-ss2-025] |  |  | 21.6 nM | 51.6 nM |
| GUCCAACAUGAGGAUCACCCAUGUGCAUGACACCGAGGAUAUGGGACUAAAGGUGCUGGACCAGAAGGCGGAAGAA [Laceus] |  |  | 27.1 nM | 45.8 nM |
| GUGAAGGAGAGAGAGGAUAUCCAAAGGAAAACAUGAGGAUCACCCAUGUAGAAGGUAGGAAAUUGGGAGAAGGCUCAAGAGAGAG [salish99-ss2-114] |  |  | 27 nM | 39.5 nM |
| GUGGUACAUGAGGAUCACCCAUGUGUGGGAGCAUGAGGAUAUGUCAGUCCAUGAAAUACGAUAGAAGGCAUGGUGA [JR_SS001_Sub1712] |  |  | 234 nM | 264 nM |
| UAAAAACAUGAGGAUCACCCAUGUAGAAAUAUGGGAGGAUAUACAAAGACGAAAGUCAAAGUAGAAGGCCUAAAAU [Mat - Same State 1 - Eli mod - 32] |  |  | 16.5 nM | 62.2 nM |
| UACAGACAUGAGGAUCACCCAUGUAGAAUUAUGGGAGGAUAUACAAAGACGAGAGUCAGAGUAGAAGGCCUAGGAG [salish99-ss1-165] |  |  | 25.2 nM | 56.9 nM |
| UAUAGACAUGAGGAUCACCCAUGUAGAAUUAUGGGAGGAUAUACAAAGACGAGAGUCAGAGUAGAAGGCCUAGGAG [salish99-ss1-153] |  |  | 31.8 nM | 63.4 nM |
| UCCUUACAUGAGGAUCACCCAUGUCGCAGGAAUCAAGGAUAUGGGACCGCAAGACGGAAACCAGAAGGUGAAAUAU [Gedizala] |  |  | 181 nM | 287 nM |
| UUUAAUUAUACGAAGGAUAUCGGUAAUUAGACAUGAGGAUCACCCAUGUUAUAUGGUUCCAUAUUCGAGAAGGUCGCGGGUGAAC [JR_SS002_Sub508] |  |  | 45.6 nM | 19.3 nM |
| UUUAAUUGCGGGCAGGAUAUGUAUUAAAAUACAUGAGGAUCACCCAUGUGCGGGUGUAACACCCGACAGAAGGGCCAAUCGCGAC [Bearisan] |  |  | 64.7 nM | 300 nM |
